Test results published in patent US20250066490A1 (PROFOUNDBIO US, published 2025).

Key:
[1] = target: T1, CD70 ECD (antigen immobilized on the CM5 chip) (UniProt P32970 39-193); assay: SPR (Biacore T200), CD70 ECD on CM5 chip, IgG as analyte
T1 construct: extracellular domain; also called CD70 antigen
T1 sequence (looked up): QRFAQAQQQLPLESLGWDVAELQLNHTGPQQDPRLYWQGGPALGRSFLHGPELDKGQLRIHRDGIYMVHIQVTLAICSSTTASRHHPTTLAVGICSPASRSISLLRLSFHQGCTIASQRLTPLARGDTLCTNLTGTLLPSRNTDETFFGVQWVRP
Method: (§1) The immobilization of antigen CD70 ECD was performed at 25° C. with HBS-EP as the running buffer. Sensor chip surface of flow cells 1, 4 were activated by freshly mixed 50 mmol/L N-Hydroxy succinimide (NHS) and 200 mmol/L 1-ethyl-3-(3-dimethylaminopropyl) carbodiimide hydrochloride (EDC) for 420s (10 μL/min). Afterwards, CD70 antigen diluted in 10 mmol/L NaAC (pH 4.5) was injected into flow cell 4 to achieve conjugation of the appropriate Response Unit, while flow cell 1 was set as a blank. After the amine coupling reaction, the remaining active coupling sites on chip surface were blocked by 420s injection of 1 mol/L ethanolamine hydrochloride.
(§2) The assay was performed at 25° C. and the running buffer was HBS-EP. Diluted antibodies were injected over the surface of flow cells 1 and 4 during the association phase, followed by injecting running buffer as the dissociation phase. All the data were processed using Biacore T200 Evaluation software version 3.1. Flow cell 1 and a blank injection of buffer in each cycle were used as a double reference for Response Units subtraction. Kinetic data of the interaction between the antibodies and CD70 antigen were obtained through affinity measurement.

[2] = target: T2, cyno CD70 recombinant ECD protein (cyno); assay: BLI, global 1:1 fit over 200-3.13 nM; cell repeated in each concentration row
T2 construct: extracellular domain; The sentence on the purchase names human, rat and mouse ECD-His only

[3] = target: T3, human CD70 extra-cellular domain (ECD) linked to His tag (human, UniProt P32970 39-193); assay: as above
T3 construct: extracellular domain; also called Hu CD70; HU CD70; not shown: His tag
T3 sequence (looked up): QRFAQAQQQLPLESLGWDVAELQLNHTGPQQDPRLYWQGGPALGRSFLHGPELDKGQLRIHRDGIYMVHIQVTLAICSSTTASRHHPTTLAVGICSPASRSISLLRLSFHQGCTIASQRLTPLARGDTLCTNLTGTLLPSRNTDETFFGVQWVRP

[4] = target: T1, CD70 ECD (antigen immobilized on the …); assay: SPR (Biacore T200), CD70 ECD on CM5 chip
Method: as §1, §2

[5] = target: T4, human CD70 recombinant protein (human, UniProt P32970 39-193, limits assumed); assay: ELISA, coated human CD70, IgG titrated
T4 construct: May be the same reagent as ACRO CDL-H5246; also called CD70 protein
T4 sequence (looked up): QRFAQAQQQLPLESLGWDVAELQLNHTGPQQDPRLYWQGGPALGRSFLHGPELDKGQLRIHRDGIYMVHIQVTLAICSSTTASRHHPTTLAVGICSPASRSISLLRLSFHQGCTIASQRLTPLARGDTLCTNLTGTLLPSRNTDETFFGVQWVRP
Method: The binding specificity of the CD70 antibodies was tested by ELISA according to a standard protocol. Briefly, 96-well micro-plates were coated with 2 μg/ml of human or cynomolgus CD70 recombinant protein in PBS at 100 μl per well and incubated overnight at 4° C. The plates were washed twice with TBS+0.5% Tween20. 200 μL of blocking buffer (2% BSA in PBS) was added to each well, and the plates were incubated at 37° C. for 2 hours. The plates were washed using the wash buffer mentioned above. Serially diluted antibodies were added to the ELISA plates using 100 μl per well, and the plates were incubated for 1 hour at room temperature. Then plates were washed 3 times. HRP conjugated anti-human Fc antibody solution (Sigma, I18885-2ML, diluted with blocking buffer) was added to the plates using 100 μl per well. The plates were incubated at room temperature for 1 hour and then washed 3 times. Then the TMB solution was added to plates using 100 μl per well and the plates were placed at RT for 5-15 mins. Then the stop solution (2M H2SO4) was added using 50 μl per well. The absorbance was measured at A450 and A630.

- Kd [1]: 14 nM
- koff [1]: 0.00106 s⁻¹
- kon [1]: 75400 M⁻¹ s⁻¹
- Kd [2]: 0.39 nM
- koff [2]: 0.000241 s⁻¹
- kon [2]: 618000 M⁻¹ s⁻¹
- Kd [3]: 0.807 nM
- koff [3]: 0.000254 s⁻¹
- kon [3]: 314000 M⁻¹ s⁻¹
- fold greater affinity than parent antibody 69A7 [4]: 22 fold
- EC50 ratio against antibody 69A7 [5]: 1.5 times
B1: 2E7, full IgG (antibody, V domains shown)
VH: QVQLQESGPGLVKPSETLSLTCTVSGGSVSSDYYYWSWIRQPPGKGLEWLGYIYYSGSTNYNPSLKSRVTISVDTSKNQFSLKLRSVTTADTAVYYCARGDGDFLGVCFDYWGQGTLVTVSS
VL: EIVLTQSPATLSLSPGERATLSCRASQSVSSYLAWYQQKPGQAPRLLIFDASNRATGIPARFSGSGSGTDFTLTISSLEPEDFAVYYCQQRSNWPLTFGGGTKVEIK
